*1 amine or outer side, *2 acyl side, *3 side chain or, on linkers, in order; H or OH if unused. Where no end group is shown, it is not given here. Side-chain parts run from the residue outwards. [ ]: non-standard residue; d: D form. The star is where a group is joined. Undecanoyl(11-OPh(4-COOH)) = O=C(O)c1ccc(OCCCCCCCCCCC(=O)*)cc1; Decanoyl(10-(4-HOOC-PhO)) = O=C(O)c1ccc(OCCCCCCCCCC(=O)*)cc1; γGlu = O=C(O)[C@H](CCC(=O)[*:2])N[*:1]; εLys = N[C@@H](CCCCN[*:1])C(=O)[*:2]; 13‑carboxytridecanoyl = C14 diacid; AEEA = NCCOCCOCC(=O)O; Aib = CC(C)(N)C(=O)O
Columns and labels:
[1] = target: T1, human GLP-1 receptor (human, UniProt P43220 24-463); experiment: cell-based or functional assay
[2] = target: T1, human GLP-1 receptor; experiment: SPA, displacement of 125I-GLP-1(7-36)NH2, BHK membranes, 0.001% HSA
Procedure: Test compounds, membranes, SPA-particles and [¹²⁵I] ]-GLP-1(7-36)NH₂ were diluted in assay buffer. 50 ul (micro liter) buffer (“low albumin” experiment containing 0.001% HSA) was added to Optiplate, and 25 ul of test compounds were added. 5-10 μg membrane protein/sample was added (50 μl) corresponding to 0.1-0.2 mg protein/ml (to be preferably optimised for each membrane preparation). SPA-particles (Wheatgerm agglutinin SPA beads, Perkin Elmer, #RPNQ0001) were added in an amount of 0.5 mg/well (50 μl). The incubation was started with [¹²⁵I]-GLP-1]-(7-36)NH₂ (final concentration 0.06 nM corresponding to 49.880 DPM, 25 μl). The plates were sealed with PlateSealer and incubated for 120 minutes at 30° C. while shaking. The plates were centrifuged (1500 rpm, 10 min) and counted in Topcounter.
The IC₅₀ value was read from the curve as the concentration which displaces 50% of ¹²⁵I-GLP-1 from the receptor.

[3] = target: T1, human GLP-1 receptor; experiment: cell-based or functional assay; remark: listed apart in the source

Binder | In vitro potency (CRE-luciferase) low albumin EC50 [1] [pM] | IC50 [2] [nM] | In vitro potency (AlphaScreen cAMP; membranes) EC50 [3] [pM]
H[Aib]EGTFTSDVSK([AEEA-AEEA-γGlu-Decanoyl(10-(4-HOOC-PhO))])YLEEQAAK([AEEA-AEEA-γGlu-Decanoyl(10-(4-HOOC-PhO))])EFIAWLVQGRG [Comparative compound of Example 7a: Compound of Example 2, Chem. 21, in WO 2012/062803] | 17 | 7.03 | 395
HXEGTFTSDVSSYLEGQAAKEFIAHLVQGRK (Aib at 8; eps-amino of Lys26 and Lys37 each acylated with 10-(4-carboxyphenoxy)decanoyl via the gGlu-2xOEG linker (as Example 2, only the linker differs)) [Comparative compound of Example 2a: Compound of Example 17, Chem. 36, in WO 2011/080103] | 132 | 44.5 | 582
HXEGTFTSDVSSYLEGQAAKEFIAWLVHGRK (Aib at 8; eps-amino of Lys26 and Lys37 each acylated with 13-carboxytridecanoyl-gGlu-Ser-Ser-Gly-Ser-Ser-Gly) | 9.8 | 4.61 | 145
HXEGTFTSDVSSYLEGQAAKEFIAWLVRGRK (Aib at 8; eps-amino of Lys26 and Lys37 each acylated with 12-(4-carboxyphenoxy)dodecanoyl-gGlu-Ser-Ser-Gly-Ser-Ser-Gly-eps-Lys) | – | 0.27 | 252
HXEGTFTSDVSSYLEGQAAKEFIAWLVRGRK (Aib at 8; eps-amino of Lys26 and Lys37 each acylated with 11-(4-carboxyphenoxy)undecanoyl-gGlu-Ser-Ser-Gly-Ser-Ser-Gly) | 2.8 | 0.17 | 27
HXEGTFTSDVSSYLEGQAAKEFIAWLVRGRK (Aib at 8; eps-amino of Lys26 and Lys37 each acylated with 12-(4-carboxyphenoxy)dodecanoyl-gGlu-Ser-Ser-Gly-Ser-Ser-Gly) | 5.2 | 0.19 | 166
H[Aib]EGTFTSDVSK([AEEA-AEEA-γGlu-Decanoyl(10-(4-HOOC-PhO))])YLEGQAAK([AEEA-AEEA-γGlu-Decanoyl(10-(4-HOOC-PhO))])EFIAWLVQGRG [Comparative compound of Example 9a: Compound of Example 92, Chem. 111, in WO 2012/062803] | – | 8.09 | 1590
H[Aib]EGTFTSDVSK([εLys-Gly-Ser-Ser-Gly-Ser-Ser-Gly-Ser-Ser-Gly-Ser-Ser-γGlu-Undecanoyl(11-OPh(4-COOH))])YLEGQAAK([εLys-Gly-Ser-Ser-Gly-Ser-Ser-Gly-Ser-Ser-Gly-Ser-Ser-γGlu-Undecanoyl(11-OPh(4-COOH))])EFIAWLVQGRG | – | 2.27 | 350
HAEGTFTSDVSK([AEEA-AEEA-γGlu-Decanoyl(10-(4-HOOC-PhO))])YLEEQAAK([AEEA-AEEA-γGlu-Decanoyl(10-(4-HOOC-PhO))])EFIAWLVQGRG [Comparative compound of Example 5a: Compound of Example 38, Chem. 57, in WO 2012/062803] | 25 | 5.8 | 224
H[Aib]EGTFTSDVSK([εLys-Ser-Ser-Ser-Ser-Ser-Ser-γGlu-Undecanoyl(11-OPh(4-COOH))])YLEGQAAK([εLys-Ser-Ser-Ser-Ser-Ser-Ser-γGlu-Undecanoyl(11-OPh(4-COOH))])EFIAWLVQGRG | 11 | 0.42 | 181
H[Aib]EGTFTSDVSK([εLys-Gly-Ser-Ser-Gly-Ser-Ser-Gly-Ser-Ser-Gly-Ser-Ser-Gly-Ser-Ser-Gly-Ser-Ser-γGlu-Undecanoyl(11-OPh(4-COOH))])YLEGQAAK([εLys-Gly-Ser-Ser-Gly-Ser-Ser-Gly-Ser-Ser-Gly-Ser-Ser-Gly-Ser-Ser-Gly-Ser-Ser-γGlu-Undecanoyl(11-OPh(4-COOH))])EFIAWLVQGRG | 47 | 4.87 | 486
H[Aib]EGTFTSDVSK([Gly-Ser-Ser-Gly-Ser-Ser-Gly-Ser-Ser-Gly-Ser-Ser-γGlu-Undecanoyl(11-OPh(4-COOH))])YLEGQAAK([Gly-Ser-Ser-Gly-Ser-Ser-Gly-Ser-Ser-Gly-Ser-Ser-γGlu-Undecanoyl(11-OPh(4-COOH))])EFIAWLVQGRG | 29 | 1.34 | 171
H[Aib]EGTFTSDVSK([Ser-Ser-Ser-Ser-Ser-Ser-γGlu-Undecanoyl(11-OPh(4-COOH))])YLEGQAAK([Ser-Ser-Ser-Ser-Ser-Ser-γGlu-Undecanoyl(11-OPh(4-COOH))])EFIAWLVQGRG | 8.3 | 0.54 | 146
H[Aib]EGTFTSDVSK([AEEA-AEEA-γGlu-13‑carboxytridecanoyl])YLEEQAVREFIAK([AEEA-AEEA-γGlu-13‑carboxytridecanoyl])LVRGRG [Comparative compound of Example 6a: Compound of Example 74, Chem. 93, in WO 2012/062803] | 62 | 0.8 | 62

— patent publication US20170145069A1 (Novo Nordisk, published 2017)
